Measured values published in publication PMC7027753, “Interaction of N‐acetyl‐L‐glutamate kinase with the PII signal transducer in the non‐photosynthetic alga Polytomella parva: Co‐evolution towards a hetero‐oligomeric enzyme” (The Febs Journal, 2019).

How the values were obtained:
[1] = molecular target: Polytomella parva N-acetyl-L-glutamate kinase (Polytomella parva) (UniProt A6XGV3); assay: SPR; His6-NAGK immobilised on a Ni2+-loaded NTA chip (FC2), strep-tagged PII injected as analyte (50-1000 nM), 25 °C, HBS (10 mM HEPES, 150 mM NaCl, 2 mM MgCl2, 0.005% NP-40, pH 7.5), FC2-FC1; without effector molecules; Kd estimated from ΔRU
[2] = molecular target: Chlamydomonas reinhardtii NAGK protein (Chlamydomonas reinhardtii); assay: as above
[3] = molecular target: Polytomella parva PII protein (Polytomella parva); assay: SEC-MALS; Superose 6 Increase 10/300 GL; 10 mM Tris pH 7.8, 300 mM NaCl, 2 mM MgCl2, 0.02% NaN3, 2% glycerol; proteins alone or PII mixed in excess with NAGK (4 : 1 monomeric concentrations), with or without 5 mM glutamine; fractions checked by SDS/PAGE
CrNAGK = molecular target: T1, CrNAGK (Chlamydomonas reinhardtii, UniProt A8HPI1); assay: coupled pyruvate kinase / lactate dehydrogenase NADH assay, […] nm; type: biochemical
T1 construct: gene CHLRE_01g015000v5; N-terminal His6 tag, E. coli LEMO-21(DE3), Ni-NTA; hexamer
T1 sequence (A8HPI1 44-340): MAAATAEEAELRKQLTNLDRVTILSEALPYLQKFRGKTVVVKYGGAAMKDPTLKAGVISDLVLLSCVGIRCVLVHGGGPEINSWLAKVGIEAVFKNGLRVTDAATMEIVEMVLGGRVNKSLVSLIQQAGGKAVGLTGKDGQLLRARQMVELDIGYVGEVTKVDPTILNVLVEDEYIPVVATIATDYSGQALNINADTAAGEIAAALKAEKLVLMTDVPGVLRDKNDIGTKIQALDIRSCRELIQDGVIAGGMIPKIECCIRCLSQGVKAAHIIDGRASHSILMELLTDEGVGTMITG

CrPII-CrNAGK = molecular target: T2, CrPII-CrNAGK (Chlamydomonas reinhardtii, UniProt A8HPI1); assay: as above; type: biochemical; details: read-out: Arg-IC50
T2 construct: gene CHLRE_01g015000v5; His6-CrNAGK and CrPII with C-terminal Strep tag, mixed equimolar; E. coli expressed; with Nitrogen regulatory protein P-II, chloroplastic (PII signal transducer)

PpaPII-CrNAGK complex [4] = molecular target: T3, PpaPII-CrNAGK complex; assay: as above; type: biochemical, Chlamydomonas reinhardtii (NAGK); Polytomella parva (PII); details: 50 mM NAG, 5 mM ATP, 20 mM MgCl2, pH 7.5; with PpaPII, no Gln; allosteric site of NAGK; unit implied in the sentence
T3 construct: gene NAGK; heterologous two-species complex, mixed equimolar: His6-CrNAGK and PpaPII from residue 50 with C-terminal Strep tag; NAGK holds arginine, PII holds glutamine

CrPII-PpaNAGK complex = molecular target: T4, CrPII-PpaNAGK complex (Polytomella parva, UniProt A0A2K3DLS9+A6XGV3); assay: as above; type: biochemical
T4 construct: heterologous two-species complex, mixed equimolar: His6-PpaNAGK from residue 41 and CrPII with C-terminal Strep tag; NAGK holds arginine, PII holds 2-oxoglutarate
T4 sequence (A0A2K3DLS9 63-205, one chain of several): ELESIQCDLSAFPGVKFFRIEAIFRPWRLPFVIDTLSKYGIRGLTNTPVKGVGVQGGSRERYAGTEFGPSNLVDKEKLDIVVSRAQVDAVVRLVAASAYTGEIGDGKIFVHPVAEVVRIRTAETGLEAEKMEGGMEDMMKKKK

[5] = molecular target: Chlamydomonas reinhardtii NAGK protein (Chlamydomonas reinhardtii); assay: SEC-MALS; Superose 6 Increase 10/300 GL; 10 mM Tris pH 7.8, 300 mM NaCl, 2 mM MgCl2, 0.02% NaN3, 2% glycerol; proteins alone or PII mixed in excess with NAGK (4 : 1 monomeric concentrations), with or without 5 mM glutamine; fractions checked by SDS/PAGE
PpaPII-CrNAGK complex [6] = molecular target: T3, PpaPII-CrNAGK complex; assay: coupled pyruvate kinase / lactate dehydrogenase NADH assay, […] nm; type: biochemical, Chlamydomonas reinhardtii (NAGK); Polytomella parva (PII); details: activation of complex inhibited by 0.12 mM arginine; 50 mM NAG, 5 mM ATP, pH 7.5; Gln site in PII Q-loop, allosteric
purified protein = substrate: CC(=O)N[C@@H](CCC(=O)O)C(=O)O; assay: purified protein; type: biochemical, Polytomella parva; details: 5 mM ATP, 20 mM MgCl2, 50 mM KCl, 50 mM imidazole pH 7.5, no arginine, no PII
[7] = molecular target: the molecule itself; assay: SEC-MALS; Superose 6 Increase 10/300 GL; 10 mM Tris pH 7.8, 300 mM NaCl, 2 mM MgCl2, 0.02% NaN3, 2% glycerol; proteins alone or PII mixed in excess with NAGK (4 : 1 monomeric concentrations), with or without 5 mM glutamine; fractions checked by SDS/PAGE

Q: What does the source list for “Polytomella parva PII protein (natural protein)”?
A: Kd [1]: 0.0938 µM; percent of PpaPII-PpaNAGK complex dissociation from the sensor chip at 330 sec after the end of the injection phase (RU at 110 sec taken as 100%) [1]: 60.7%; percent of PpaPII-PpaNAGK complex dissociation from the sensor chip at 660 sec after the end of the injection phase (RU at 110 sec taken as 100%) [1]: 41.9%; Kd [2]: 0.0863 µM; stoichiometry N [3]: 3

Q: How did the IC50 (CrNAGK) turn out when `N=C(N)NCCC[C@H](N)C(=O)O` [arginine] was run?
A: 120 ± 30 µM

Q: What about the IC50 (CrPII-CrNAGK) of the same molecule?
A: 250 ± 10 µM

Q: And the IC50 (PpaPII-CrNAGK complex [4])?
A: 70 ± 10 µM

Q: What about the IC50 (CrPII-PpaNAGK complex) of the same molecule?
A: 680 ± 150 µM

Q: How did the stoichiometry N [5] turn out when “Chlamydomonas reinhardtii NAGK protein (enzyme)” was run?
A: 6

Q: How did the EC50 (PpaPII-CrNAGK complex [6]) turn out when `NC(=O)CC[C@H](N)C(=O)O` [glutamine] was run?
A: 1100 µM

B1: Polytomella parva N-acetyl-L-glutamate kinase (enzyme, UniProt A6XGV3 41-329, looked up)
chain: TSDKKELTNLDRVTILSEALPYLQKFRGKTIVIKYGGAAMKDPTLKAGVITDLVLLNCVGIRTVLVHGGGPEINSWLSKVGIKPNFKNGLRVTDSATMDIVEMVLGGRVNKSLVSLIQQAGGRGVGLTGKDGQLLKARQMTELDIGHVGEVTKVDPTILNVMVNDGYIPVVATIASDPAGQALNINADTAAGEIAAALKAKKLVLMTDVPGVLRDKNDIKTKIHSLDIRGCRELIKDGIIAGGMIPKIECCIRCLAQGVDAAHIVDGRAKHSILMELLTDEGVGTMITG
notes: the full-length polypeptide has 329 amino acids; The discussion gives the transit peptide as 1-21, the results and methods as 1-40; also called PpaNAGK; NAGK; not shown: His6, N-terminal, kept
Q: For B1, which Km (purified protein) is on record?
A: 2350 ± 220 µM

Q: And the kcat (purified protein)?
A: 211.5 ± 4.1 s⁻¹

Q: What about the “stoichiometry N” value [7] of the same molecule?
A: 6
